Test results published in patent US20120100141A1.

Molecular target: Mouse GLP-1 receptor (mouse) (UniProt O35659)
Test: cell-based or functional assay

Chain of Mouse GLP-1 receptor (mouse) (O35659 22-463): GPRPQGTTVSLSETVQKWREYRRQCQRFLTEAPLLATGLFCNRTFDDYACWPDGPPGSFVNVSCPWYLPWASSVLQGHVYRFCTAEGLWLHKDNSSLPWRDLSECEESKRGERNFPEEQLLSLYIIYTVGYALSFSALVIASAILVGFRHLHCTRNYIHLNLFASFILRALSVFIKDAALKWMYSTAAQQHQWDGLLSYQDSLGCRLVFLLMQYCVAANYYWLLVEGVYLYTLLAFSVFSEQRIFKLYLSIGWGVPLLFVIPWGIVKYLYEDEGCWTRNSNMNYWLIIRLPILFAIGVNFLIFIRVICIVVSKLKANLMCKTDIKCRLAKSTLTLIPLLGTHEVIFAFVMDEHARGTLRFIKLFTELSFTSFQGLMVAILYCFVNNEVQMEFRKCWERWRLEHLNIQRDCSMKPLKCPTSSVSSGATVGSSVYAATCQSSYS

pEC50, melanophore functional GLP-1R bioassay: 11.5
Substance: GLP-1 (7-36) (from UniProt P01275 98-127) (peptide)
